This is an account of results in PMC5743843 (Protein Science : A Publication of the Protein Society, 2017).

The chains are these.
B1: urease accessory protein UreF (natural protein)
chain: MDKGKSVKSTEKSVGMPPKTPKTDNNAHVDNEFLILQVNDAVFPIGSYTHSFGLETYIQQKKVTNKESALEYLKANLSSQFLYTEMLSLKLTYESALQQDLKKILGVEEVIMLSTSPMELRLANQKLGNRFIKTLQAMNELDMGEFFNAYAQKTKDPTHATSYGVFAASLGIELKKALRHYLYAQTSNMVINCVKSVPLSQNDGQKILLSLQSPFNQLIEKTLELDESHLCTASVQNDIKAMQHESLYSRLYMS

For data set [1], the target named is T1, urease accessory protein UreH (Helicobacter pylori, UniProt Q09067 1-265).
T1 sequence: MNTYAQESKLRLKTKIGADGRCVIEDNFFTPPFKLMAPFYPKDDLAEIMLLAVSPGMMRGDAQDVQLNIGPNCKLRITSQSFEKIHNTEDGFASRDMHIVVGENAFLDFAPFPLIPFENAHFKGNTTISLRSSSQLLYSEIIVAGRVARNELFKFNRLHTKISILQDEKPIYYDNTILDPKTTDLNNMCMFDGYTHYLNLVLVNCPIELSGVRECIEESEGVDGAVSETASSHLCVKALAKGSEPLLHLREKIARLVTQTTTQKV
The data set can be described thus: crystal structure.

The data set “crystal structure” deals with the molecule itself. The data set can be described thus: crystal structure.
For data set [2], the target named is T2, extracellular region of Nectin-Like 2 (UniProt Q9BY67 45-374).
T2 sequence: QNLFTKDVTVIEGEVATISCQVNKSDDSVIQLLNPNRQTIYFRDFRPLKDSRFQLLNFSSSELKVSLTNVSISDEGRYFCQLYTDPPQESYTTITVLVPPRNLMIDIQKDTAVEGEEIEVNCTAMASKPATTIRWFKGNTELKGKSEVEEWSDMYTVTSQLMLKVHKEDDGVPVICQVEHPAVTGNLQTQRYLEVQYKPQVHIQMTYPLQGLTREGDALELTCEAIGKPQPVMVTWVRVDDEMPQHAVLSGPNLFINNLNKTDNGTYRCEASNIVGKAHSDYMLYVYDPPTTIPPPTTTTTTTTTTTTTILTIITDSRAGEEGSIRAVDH
Put plainly: SPR.

The target in another data set is T3, FtsL (E. coli, UniProt P0AEN4 1-121).
T3 sequence: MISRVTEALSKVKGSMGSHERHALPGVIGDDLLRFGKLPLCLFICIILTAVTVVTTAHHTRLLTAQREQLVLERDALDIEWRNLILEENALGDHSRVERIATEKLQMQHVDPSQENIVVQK
Put plainly: FRET or BRET + other: single molecule photobleaching.

In data set [3] the target is B1. Put plainly: crystal structure.

B1: the binding result (in data set [1]; in the data set “crystal structure”) was “binds” in each case.

B2: extracellular region of CRTAM (domain or fragment)
chain: SLTNHTETITVEEGQTLTLKCVTSLRKNSSLQWLTPSGFTIFLNEYPALKNSKYQLLHHSANQLSITVPNVTLQDEGVYKCLHYSDSVSTKEVKVIVLATPFKPILEASVIRKQNGEEHVVLMCSTMRSKPPPQITWLLGNSMEVSGGTLHEFETDGKKCNTTSTLIIHTYGKNSTVDCIIRHRGLQGRKLVAPFRFEDLVTDEETASDALERNSLSSQDPQQPTSTVSVTEDSSTSEIDKEEKEQTTQDPDLTTEANPQYLGLARKKSG
As a reminder, the Kd is the equilibrium constant for the complex coming apart. Take B2: in data set [2], binding was characterised by a dissociation constant (Kd) of 37.2 nM.

B3: FtsB (natural protein)
chain: MGKLTLLLLAILVWLQYSLWFGKNGIHDYTRVNDDVAAQQATNAKLKARNDQLFAEIDDLNGGQEALEERARNELSMTRPGETFYRLVPDASKRAQSAGQNNR
For orientation: stoichiometry N means a count of units in the complex or per binding partner. Turning to B3, the “stoichiometry N” value in the data set with FtsL came out at 1 FtsB per FtsL.

B4: urease accessory protein UreG (enzyme)
chain: MVKIGVCGPVGSGKTALIEALTRHMSKDYDMAVITNDIYTKEDAEFMCKNSVMPRERIIGVETGGCPHTAIREDASMNLEAVEEMHGRFPNLELLLIESGGDNLSATFNPELADFTIFVIDVAEGDKIPRKGGPGITRSDLLVINKIDLAPYVGADLKVMERDSKKMRGEKPFIFTNIRAKEGLDDVIAWIKRNALLED
Turning to B4, the binding result in data set [3] was “binds”.
